Laboratory results: publication PMC5899157 (2018)

T1: mCXCL5 displayed on the surface of yeast as N-terminal fusion of Aga2p (mouse)
T1 chain: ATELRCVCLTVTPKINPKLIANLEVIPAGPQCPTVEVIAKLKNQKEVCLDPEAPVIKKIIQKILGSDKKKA

T2: mCXCL3 displayed on the surface of yeast as N-terminal fusion of Aga2p (mouse, UniProt Q6W5C0 32-100)
T2 chain: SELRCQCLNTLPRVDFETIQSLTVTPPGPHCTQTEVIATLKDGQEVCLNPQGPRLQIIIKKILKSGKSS

B1: SA129, mouse serum albumin fused to the CK129 single-chain variable antibody fragment (scFv, V domains shown)
VH: EVQLVESGGGLVQPGGSLRLSCAASGFNISSYGSMHWVRQAPGKGLEWVASIYPYSSSTYYADSVKGRFTISADTSKNTAYLQMNSLRAEDTAVYYCARGYGPWYAYSYFALDYWGQGTLVTVSS
VL: DIQMTQSPSPLSASVGDRVTITCRASQYGGYVAWYQQKPGKAPKLLIYGASLLYSGVPSRFSGGRSGTDFTLTISSLQPEDFATYYCQRGHALITFGQGTKVEIE
B2: mCXCL1 displayed on the surface of yeast as N-terminal fusion of Aga2p (ligand)
chain: APIANELRCQCLQTMAGIHLKNIQSLKVLPSGPHCTQTEVIATLKNGREACLDPEAPLVQKIVQKMLKGVPK
B3: SA138, mouse serum albumin fused to the CK138 single-chain variable antibody fragment (scFv, V domains shown)
VH: EVQLVESDGGLVQPGGSLRLSCAASGFNLSYYGMHWVRQAPGKGLEWVAYIASYPGYTSYADSVKGRFTISADTSKNTAYLQMNSLRAEDTAVYYCARSGYSYSPYYSWFSAGMNYWGQGALVTVSS
VL: AIQMTRSPSSLSASVGDRVTITCRASQYHDGSAAWYQQKPGKAPKLLIYGASYLYSGVPSRFSGSRSGTDFTLTISSLQPEDFATYYCQQSSYSLITFGQGTKVEIK
B4: mCXCL2 displayed on the surface of yeast as N-terminal fusion of Aga2p (ligand)
chain: AVVASELRCQCLKTLPRVDFKNIQSLSVTPPGPHCAQTEVIATLKGGQKVCLDPEAPLVQKIIQKILNKGKAN

Key:
Experiment in all cases: FACS
hCXCL3 = target: hCXCL3
hCXCL2 = target: hCXCL2
[1] = target: wild-type hCXCL1 displayed on the surface of yeast as N-terminal fusion of Aga2p (human, UniProt P09341 35-107)
Chain of wild-type hCXCL1 displayed on the surface of yeast as N-terminal fusion of Aga2p (P09341 35-107): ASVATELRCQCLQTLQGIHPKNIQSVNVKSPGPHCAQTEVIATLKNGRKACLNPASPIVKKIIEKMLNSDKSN

[2] = target: B2
[3] = target: SA157*, separate mouse serum albumin fusions of the VL and VH domains of CK157 mixed in equimolar amounts
hCXCL6 = target: hCXCL6
hCXCL8 = target: hCXCL8
hCXCL5 = target: hCXCL5
[4] = target: T1, mCXCL5 displayed on the surface of …
[5] = target: B4
[6] = target: T2, mCXCL3 displayed on the surface of …

Row | Binder | Kd (hCXCL3) [nM] | Kd (hCXCL2) [nM] | Kd [2] [nM] | Kd [3] [nM] | also measured
1 | B1 | 9.2 | 43.6 | 2.9 |  | Kd [1]: 2.7 nM
2 | B2 |  |  |  | 666 | 
3 | B3 | 836 | 1590 | 29.4 |  | Kd (hCXCL6): 5 µM; Kd (hCXCL8): 14.7 nM; Kd (hCXCL5): 33.7 nM; Kd [4]: 357 nM; Kd [5]: 16.7 nM; Kd [6]: 31.1 nM
4 | B4 |  |  |  | 591 | 
